In the assay the target is recombinant human glandular kallikrein 2 (hK2) (human) (UniProt P20151). Put plainly: cell-based or functional assay.

SLPI, sequence (P03973 26-132 limits assumed): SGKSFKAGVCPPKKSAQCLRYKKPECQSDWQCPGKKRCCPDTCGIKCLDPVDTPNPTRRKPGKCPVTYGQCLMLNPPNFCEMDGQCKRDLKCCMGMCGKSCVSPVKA

On to PPACK (peptide), for which the hK2 Activity (%) of inhibitor-free control, inhibitor at 5 µM stood at 0%.

SLPI (from UniProt P03973 26-132): the hK2 Activity (%) of inhibitor-free control, inhibitor at 0.08 µM was found to be 92% and the hK2 Activity (%) of inhibitor-free control, inhibitor at 4 µM was found to be 35%.

Take antipain (peptide): the hK2 Activity (%) of inhibitor-free control, inhibitor at 100 µM came to 33% and the hK2 Activity (%) of inhibitor-free control, inhibitor at 500 µM amounted to 10%.

For leupeptin (peptide), the hK2 Activity (%) of inhibitor-free control, inhibitor at 100 µM came to 12%.

For the origin of these results see patent US20120309692A1.
